Results reported in publication PMC9035704.
Values joined by “and” are separate entries in the source; they are usually repeats but may differ in a detail not shown here. Identical values can stand only once. Like-named read-outs stand apart in the source and are kept apart here.

What was measured:
Test in all cases: cryo-EM structure
[1] = biological target: Danio rerio calcium homeostasis modulator 1 (drCALHM1) (Danio rerio) (UniProt E7F2J4)
[2] = biological target: Danio rerio calcium homeostasis modulator 1 (drCALHM1) (Danio rerio) (UniProt E7F2J4); remark: listed apart in the source
[3] = biological target: Danio rerio calcium homeostasis modulator 1 (drCALHM1) (Danio rerio) (UniProt E7F2J4); remark: listed apart in the source

stoichiometry N [1]: 7 and 8
stoichiometry N [2]: 8
stoichiometry N [3]: 7
Substance: Danio rerio calcium homeostasis modulator 1 (drCALHM1) (from UniProt E7F2J4 1-346) (natural protein)
